{"source": "the DeepSol protein solubility set", "data": [{"assay": "soluble on expression in E. coli; label from the status in PepcDB or PDB records", "values": [{"sequence": "MRITIYTRNDCVQCHATKRAMENRGFDFEMINVDRVPEAAEALRAQGFRQLPVVIAGDLSWSGFRPDMINRLHPAPHAASA", "soluble on expression in E. coli": "soluble"}, {"sequence": "MHITNRSHLADRYGKRTSAEFLLHERPILSFPISLAAIPKEARYLSWELIDYDTIPLIGFPFIHWLAANVPVTNEIPEDFSRTALKPTIQGKNSLASPLGKQMIPALATETLPELTERYLGLSPRSGVHTYTLYVYTTKNPLNLKEGFFANELHQALNDQLLAKAKFEFLY", "soluble on expression in E. coli": "not soluble"}, {"sequence": "AEQKTLHIYNWSDYIAPDTVANFEKETGIKVVYDVFDSNEVLEGKLMAGSTGFDLVVPSASFLERQLTAGVFQPLDKSKLPEWKNLDPELLKLVAKHDPDNKFAMPYMWATTGIGYNVDKVKAVLGENAPVDSWDLILKPENLEKLKSCGVSFLDAPEEVFATVLNYLGKDPNSTKADDYTGPATDLLLKLRPNIRYFHSSQYINDLANGDICVAIGWAGDVWQASNRAKEAKNGVNVSFSIPKEGAMAFFDVFAMPADAKNKDEAYQFLNYLLRPDVVAHISDHVFYANANKAATPLVSAEVRENPGIYPPADVRAKLFTLKVQDPKIDRVRTRAWTKVKSGK", "soluble on expression in E. coli": "soluble"}, {"sequence": "MLLEIKDLVYKASDRIILDHISLKVDKGESIAIIGPSGSGKSTFQKQICNLFSPTSGELYFKGKPYNDYDPEELRQRISYLMQQSDLFGETIEDNMIFPSLARNDKFDRKRAKQLIKDVGLGHYQLSSEVENMSGGERQRIAIARQLMYTPDILLLDESTSALDVNNKEKIENIIFKLADQGVAIMWITHSDDQSMRHFQKRITIVDGQISNTEELNQHE", "soluble on expression in E. coli": "soluble"}, {"sequence": "PSSAVGSGSEGFIVRLPAALLFKEGGIEVENSDGFLFVKRMAEIVNRLPKDVHVEVRGHTDTLPLPAQAPQDKLELTAKRALSVSKLLVKEGIDPKRITTVGRGDQDPLTHARTPEAQESNRRVDIYLYPKE", "soluble on expression in E. coli": "soluble"}, {"sequence": "MIMKKEKTYSRAPLPFVGQKRMFVSEFKKILKHFDDKTIFVDLFGGSGLLSHITKRERPDAVVIYNDHDNYRERLENIDRTNTLLRDLRKIVGIYPRHQKITGKMREAFLERIRLEETTGFVDYLTLSTSLLFSGKYAQNMEELEGLYFYNKIRQSDYRCDGYLDGLEVVCYDYKELADTYGVFPGVVFLVDPPYMGTDISTYKMDWKLADYLDVLLVLKGH", "soluble on expression in E. coli": "not soluble"}, {"sequence": "MSVVISGALTDGAGIPMSGYHIILKSRVNTPEVVMNTVADVMTGNDGEYCFHARTGKYGVYLKQDWRNEYNVGDIAVYEDSKPGTLNDFLIAPDEGDLKPDVVKRFEEMVAQAQQSAGAAAGNAQQTAQDVAAAAGYARAAEQAKNDIDAALTGTLKTANHLSETAAAGEKAQQKSRDNLGLKSAATMEAQSDIYDRTKGRLAIPGAFGFGCAFLPEDVIRFDTKSDFLAWVRNALPGEYSVAGPYGIIIPDTRFEGVLSIRWTDARPETTEPRYRAKSLTFYGINGPIYHTRYRYWPISRLTDWVKINITTEDIIYRIVASSVRNRWGDPDIGGLIIAAYQGEADGDKVIRLVRGQSYRGSRLGPVGISVPSTPTGTYIASPQFFITGCSEHSLPGSYCALSGVPDAHVSGAMPGLFIRTS", "soluble on expression in E. coli": "not soluble"}, {"sequence": "MAHHHHHHMKETLVFATARQQFLQHGYAIFSAAIGASLIERLRPALTASTVARARCFIDVPDIESMLKSKSRLSDPLYTKVMARLQRRKYMLRRYREEKKRRKQLKEVVANFLNGREKEDLTGEELWKLSELLAKEAVSVPGKECRSTIKNDPQMLRAINEYRCNVWMTNKELENIVRDPSFWQPIGAIASDVGGVERPVLFADAPMFREPYGGPFGYHCTAPSIGVKTNGNQPLAVSLLVFTHRPDKQKMPLFVLKGSHRFVQDQYLRYVLPNVLSLPFLPMESHIPEQIKRFNFDSSVVGSPIEGGDAIGPGTVVVLNPHLMIGVGANASTERVAVYKLNLIAENAPPFLKAPSWITAWRSLPREVNFASPVVFPPFYDKTMSTTSAR", "soluble on expression in E. coli": "not soluble"}, {"sequence": "MGSDKIHHHHHHMPSLREQQHPLIRQLADCIEAAWHQHLDLSPYHLPDELGYVEGRLEGEKLTIENRCYQTPQFRKMHLELANIGNMLDILHCVMFPRPQYNLPMFGCDLVGGRGQISAAIADLSPIQLERTLPESYTTALAQLPVLNFSQPRELPEWGNIFSDFCIFVRPGSPEEEAMFLSRVREFLDIHCMQAIASHPVSVEQVTQNLAGQHNYCTKQQQNDKTRRVLEKAFGPVWAENYMTTVLFDLPT", "soluble on expression in E. coli": "not soluble"}, {"sequence": "MLPLIRKMKPTDAAALTIINKEQLGYEVPVDVTCKQIEKLLLASDREFLYVYEETKTGKILGYVHAQLYETIYSQTLLNVLGLAVAKEAEGRGIGKQLMTKLETEAKKCNLSAIRLNSGEQRTAAHQFYEHIGYVSDKKQKRFIKYLDT", "soluble on expression in E. coli": "not soluble"}, {"sequence": "MKIEEGKVVIWHAMQPNELEVFQSLAEEYMALCPEVEIVFEQKPNLEDALKAAIPTGQGPDLFIWAHDWIGKFAEAGLLEPIDEYVTEDLLNEFAPMAQDAMQYKGHYYALPFAAETVAIIYNKEMVSEPPKTFDEMKAIMEKYYDPANEKYGIAWPINAYFISAIAQAFGGYYFDDKTEQPGLDKPETIEGFKFFFTEIWPYMAPTGDYNTQQSIFLEGRAPMMVNGPWSINDVKKAGINFGVVPLPPIIKDGKEYWPRPYGGVKLIYFAAGIKNKDAAWKFAKWLTTSEESIKTLALELGYIPVLTKVLDDPEIKNDPVIYGFGQAVQHAYLMPKSPKMSAVWGGVDGAINEILQDPQNADIEGILKKYQQEILNNMQG", "soluble on expression in E. coli": "soluble"}, {"sequence": "MSRKIPKEPTTRPAFNAYEKHVRDINNFVIPYQRENKYKKVVGETDLDVLKREYRFIRESEEEDAKSWETRLARRHYERLYKDYAIAELSQWREGSVGFRWLNQTEVLQGKGYSCCAATDCDSASELNTFEVPFTYEEDGETKATLVKVRLCRSCQVKMRESYRIAREKLK", "soluble on expression in E. coli": "soluble"}, {"sequence": "MGSDKIHHHHHHMNFIKEKHIEIVLNQTCLNPKLSVFLPVIKKTGVQLISVFHSQPYGMYGIKAFPKICNVFGVDKVGNLVDVLIHFAFKLKYGRYLKRMLQYSDKLVMLSDKFINEFLYFSGKKYAEKMLSISNPVTINGGGSEKKEKIVLFVGRISQEKGVDKILEVWRGICHEEKYKEWRLVIVGDGEKRKQMEKYAMDMELINYSFEGFQKPDGYYDKAKIFCMASAFEGFGLVLVEAMSYGVVPMAFNSFSNCSDIIDDDKNGILVTPFSINEYRKKIIELIENDEKWMKMSTCSINKSKEYSIECIGAKWLDLFYSLLNNKVT", "soluble on expression in E. coli": "not soluble"}, {"sequence": "MKLEGVWKVFGNVVAVRDVNLYIEDKEFVSILGPSGSGKTTLLYLIAGIYKPSRGRIYFNDVDVTDLPPNKRNIGLVFQNYALYPHMTVYENIAFPLRLRNFGEPAIKEKVLSVAKLLGIEGLLDRYPAQLSGGQQQRVALARALVKEPEVLLLDEPLSNLDALLRIKIRSELKKLQKELGITAIYVTHDQSEALAMADRIAIIASGVIQQVGKPWDVYYKPRNVFVASFIGTPPANLVSVPLDSSRRCLLLPGGGRYCPPRRIAEKLAAVKTNSVILGFRPEVAVLSESPLGDYVSMEAEVYTVETLGRENIVTLLVNGSQVKVIVPPVVEPRPGSRIFINIEEDKVMYFDPETEINVEYLEVPGMEEAIAESAGTLRKQEMEEEWD", "soluble on expression in E. coli": "soluble"}, {"sequence": "MNPSLENLQLYPFQKLTKLFEDLVPRDSLPTPIGLHIGEPRHSTPEFIRQELINSLEGLAHYPTVLGTDRLRASIATWLTQRYHLSSIDPDTEVIPVNGSREALFSFAQAVIDTDHKAIQPAVVCQNPFYQIYEGAALLAGATPYFLNQLPENNFSADTAQLPDTVWERTQLVYICSPNNPTGKVLTLDEWKHLFDLSDRYGFVIAADECYSEIYFDEGHPPLGALEAAEKLGRSGFPRLVVFSSLSKRSNVPGMRSGFVAGDATILRKFLLYRTYHGSAMNPAVQAASTVAWSDEQHVAENRKLYYEKFTGAMHILGDTLPVSMPDAGFYLWLRTPVSGIEFSRRLYREGNVTVLPGSYLAREAHGMDPGEDFVRIALVAPVVECMEAMERIRDIARKF", "soluble on expression in E. coli": "not soluble"}, {"sequence": "MTKTVEMVITGAQVLNVYTREFEATSLWIDHGRIISNLRDEPYIAAQHVDATGQWIVPGMIDAHVHMESSMVAPSELGKVLLQHGVTTIATDPHELANVAGLEHHHHHH", "soluble on expression in E. coli": "not soluble"}, {"sequence": "MATITDNDVALTITKIHQIQGSGTAFNSAFGGIRTIEGVVVAAFPGGSGLNGFFVQEEDADTDNDSTTSEGIFVFDPTGQFSGSVGDKVRVTGSVSEFSTNNGVSSLTQLSSVSSIINLGADILPKMSNIQLPVTTVADLERYEGMRVNISAGNGDLTVTEHFQLGRFGQVVLSATGTSNQPGTDGRLEQYTQFNDPSVAGYAAYLDEIAKRRIILDDGSSTQNPATIIFGRGGEPLSATNTLRGGDTVASITGVLDQRFEGYRVQTSTGVDFTPANPRPATTPDVGGTLKVASFNVLNYFNGDLEHHHHHH", "soluble on expression in E. coli": "not soluble"}, {"sequence": "MNDTAGELEFVPLAANDDETVGQWLDLMALAAETGPRAAPPCNVDMVGSLRFAPPATALDDWVVRSGGRVVGALRLALPDGAPTARVDQLLVHPGRRRRGIGRALWAHARELARKHDRTTLTATVVESLPSGPAQDPGPAAFAAAMGAHRSDIPAGTHQWLDLDRHDPLADGVPAVPAGYSLVTWGTITPDEYAVPVSELELSLGAGPVDRAAQEVRTSYARQFETMRVGRGRRAYHTGAVHDATGALAGYTSVSKTTGNPAYALQGMTVVHREHRGHALGTLLKLANLEYVLRHEPEVRLVETANAEDNHPMIAVNAALGFEPYDRWVFWTAEAGPSD", "soluble on expression in E. coli": "soluble"}, {"sequence": "MSLKIDFLTLFPEMFEGVLGSSILQKAQEKDAVQFQVVNFREYSDNKHNTVDDYPYGGGAGMVLKPQPVFDAVEDLTSKAAAAPRIILVCPQGERFTQKKAEQLAKEEHLLFICGHYEGYDERIREHLVTDEISIGDFVLTGGELPAMMIADSVVRLLPGVLGKEASHIEDSFSTGLLEHPHYTRPADYKGLKVPETLLSGNHAKIEEWRNKESIRRTYLRRPDLLKDYPLTEQQRKWISEWEKEEGGSHHHHHH", "soluble on expression in E. coli": "soluble"}, {"sequence": "MSFETISVIGLGYIGLPTAAAFASRKKKVIGVDVNAHAVETINRGAIHIVEPDLDKVVKIAVEGGYLQAVTKPQAADAFLIAVPTPFKGDHEPDMIFVESAAKSIAPVLKKGDLVILESTSPVGATEQMAQWLAEARPDLSFPQQAGEAADINIAYCPERVLPGQVMVELIQNDRVIGGMTPKCSARASALYKIFLEGECVVTNSRTAEMCKLTENSFRDVNIAFANELSLICDEQGINVWELIRLANRHPRVNILQPGPGVGGHCIAVDPWFIVSQNPQLARLIHTARLVNDGKPLWVVDRVKAAVADCLAASDKRASEVKIACFGLAFKPDIDDLRESPAVGVARLIAEWHVGETLVVEPNVEQLPKSLMGLVTLKDTATALQQADVLVMLVDHKQFKAIKPEDIKQQWIVDTKGVWR", "soluble on expression in E. coli": "not soluble"}, {"sequence": "MIQLKNVGITLSGKGYERFSLENINLEVNGEKVIILGPNGSGKTTLLRAISGLLPYSGNIFINGMEVRKIRNYIRYSTNLPEAYEIGVTVNDIVYLYEELKGLDRDLFLEMLKALKLGEEILRRKLYKLSAGQSVLVRTSLALASQPEIVGLDEPFENVDAARRHVISRYIKEYGKEGILVTHELDMLNLYKEYKAYFLVGNRLQGPISVSELLESSIVEGERNDALLVLDIMDKKVSIVKGDLGMKFGALGSLNRIYGIIGA", "soluble on expression in E. coli": "soluble"}]}]}
